Data published in US20230338555A1 (IONIS PHARMACEUTICALS, published 2023).
Like-named read-outs stand apart in the source and are kept apart here. Ends that are not written are not given here. * marks the point of attachment. Azidoacetyl = [N-]=[N+]=NCC(=O)*

Experiments:
Assay in all cases: cell-based or functional assay
[1] = biological target: T1, human sortilin stably expressed on HEK 293 cells (HEK-SORT1 cells) (human, UniProt Q99523 78-831)
T1 sequence (looked up): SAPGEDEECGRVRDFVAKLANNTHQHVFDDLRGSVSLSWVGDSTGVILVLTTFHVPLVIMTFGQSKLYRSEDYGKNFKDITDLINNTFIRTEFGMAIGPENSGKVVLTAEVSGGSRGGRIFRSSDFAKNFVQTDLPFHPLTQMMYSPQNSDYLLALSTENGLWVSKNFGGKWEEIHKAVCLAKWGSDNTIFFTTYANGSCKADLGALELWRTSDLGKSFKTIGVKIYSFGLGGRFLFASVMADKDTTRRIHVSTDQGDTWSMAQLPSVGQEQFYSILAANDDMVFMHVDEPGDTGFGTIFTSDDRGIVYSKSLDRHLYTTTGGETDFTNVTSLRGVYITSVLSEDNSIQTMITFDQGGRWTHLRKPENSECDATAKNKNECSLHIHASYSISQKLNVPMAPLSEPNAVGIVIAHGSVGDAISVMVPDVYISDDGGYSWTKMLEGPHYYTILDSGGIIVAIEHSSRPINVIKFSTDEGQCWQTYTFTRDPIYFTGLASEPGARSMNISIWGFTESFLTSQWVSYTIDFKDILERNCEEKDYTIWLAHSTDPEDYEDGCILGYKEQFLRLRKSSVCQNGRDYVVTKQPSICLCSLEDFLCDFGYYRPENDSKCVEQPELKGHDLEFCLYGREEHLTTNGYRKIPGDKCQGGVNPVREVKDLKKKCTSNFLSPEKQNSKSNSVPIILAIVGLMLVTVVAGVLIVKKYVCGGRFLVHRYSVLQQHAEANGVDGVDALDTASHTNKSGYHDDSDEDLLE

[2] = biological target: T1, human sortilin stably expressed on HEK …; remark: listed apart in the source
[3] = biological target: T1, human sortilin stably expressed on HEK …; remark: listed apart in the source
[4] = biological target: T1, human sortilin stably expressed on HEK …; remark: listed apart in the source
[5] = biological target: T1, human sortilin stably expressed on HEK …; remark: listed apart in the source

B1: Compound No. 1091165, [SO5P]-LYEN[azido-acetyl-K]PRRPYIL peptide conjugated to 20-mer MOE oligonucleotide with 3'-Cy3 (peptide)
peptide: LYENXPRRPYIL
modifications: not fully specified; position 1 is SO5P (5-oxoproline); internal lysine (LYEN-K) side chain azido-acetyl joined via triazolo-BCN carbamate / 6-aminohexanol linker to 5' end of … (SEQ ID NO 2, uniform MOE, phosphodiester, 3'-Cy3)
[1]
  Mean Fluorescence Intensity (MFI), uptake 37C-4C, at 12 nM: 45 MFI
  Mean Fluorescence Intensity (MFI), uptake 37C-4C, at 37 nM: 53 MFI
  Mean Fluorescence Intensity (MFI), uptake 37C-4C, at 111 nM: 60 MFI
  Mean Fluorescence Intensity (MFI), uptake 37C-4C, at 333 nM: 73 MFI
  Mean Fluorescence Intensity (MFI), uptake 37C-4C, at 1000 nM: 97 MFI

B2: Compound No. 1270698, XLYENKPKRPYIL peptide conjugated to 20-mer MOE oligonucleotide with 3'-Cy3 (peptide)
peptide: XLYENKPKRPYIL
modifications: not fully specified; X at position 1 is 2-azido-acetyl lysine, joined via triazolo-BCN carbamate / 6-aminohexanol linker to 5' end of … (SEQ ID NO 2, uniform MOE, phosphodiester, 3'-Cy3)
[2]
  Mean Fluorescence Intensity (MFI), uptake 37C-4C, at 12 nM: 35 MFI
  Mean Fluorescence Intensity (MFI), uptake 37C-4C, at 37 nM: 48 MFI
  Mean Fluorescence Intensity (MFI), uptake 37C-4C, at 111 nM: 78 MFI
  Mean Fluorescence Intensity (MFI), uptake 37C-4C, at 333 nM: 155 MFI
  Mean Fluorescence Intensity (MFI), uptake 37C-4C, at 1000 nM: 394 MFI

B3: Compound 17-AH-1492, Cy3-labeled extended neurotensin (eNT, …) (peptide)
peptide: KPPPAGSSPGLYENKPRRPYIL
modifications: not fully specified (residue 1); also: Cy3 label attached by BCN click to the azide
[3]
  Mean Fluorescence Intensity (MFI), uptake 37C-4C, at 12 nM: 108 MFI
  Mean Fluorescence Intensity (MFI), uptake 37C-4C, at 37 nM: 334 MFI
  Mean Fluorescence Intensity (MFI), uptake 37C-4C, at 111 nM: 763 MFI
  Mean Fluorescence Intensity (MFI), uptake 37C-4C, at 333 nM: 1100 MFI
  Mean Fluorescence Intensity (MFI), uptake 37C-4C, at 1000 nM: 1360 MFI
[4]
  Mean Fluorescence Intensity (MFI), uptake 37C-4C, at 7 nM: 84 MFI
  Mean Fluorescence Intensity (MFI), uptake 37C-4C, at 22 nM: 266 MFI
  Mean Fluorescence Intensity (MFI), uptake 37C-4C, at 76 nM: 593 MFI
  Mean Fluorescence Intensity (MFI), uptake 37C-4C, at 260 nM: 869 MFI
  Mean Fluorescence Intensity (MFI), uptake 37C-4C, at 882 nM: 1180 MFI
  Mean Fluorescence Intensity (MFI), uptake 37C-4C, at 3000 nM: 1440 MFI
[1]
  Mean Fluorescence Intensity (MFI), uptake 37C-4C, at 12 nM: 167 MFI
  Mean Fluorescence Intensity (MFI), uptake 37C-4C, at 37 nM: 390 MFI
  Mean Fluorescence Intensity (MFI), uptake 37C-4C, at 111 nM: 724 MFI
  Mean Fluorescence Intensity (MFI), uptake 37C-4C, at 333 nM: 1030 MFI
  Mean Fluorescence Intensity (MFI), uptake 37C-4C, at 1000 nM: 1260 MFI

B4: Compound No. 1252443, XPAPSGPSPGLYENKPRRPYIL peptide conjugated to 20-mer MOE oligonucleotide with 3'-Cy3 (peptide)
peptide: KPAPSGPSPGLYENKPRRPYIL
modifications: not fully specified (residue 1); also: X side chain clicked via BCN (triazole) and 6-aminohexanol linker to 5' end of oligonucleotide CCAGGCTGGTTATGACTCAG (MOE, 3'-Cy3)
[4]
  Mean Fluorescence Intensity (MFI), uptake 37C-4C, at 7 nM: 53 MFI
  Mean Fluorescence Intensity (MFI), uptake 37C-4C, at 22 nM: 130 MFI
  Mean Fluorescence Intensity (MFI), uptake 37C-4C, at 76 nM: 413 MFI
  Mean Fluorescence Intensity (MFI), uptake 37C-4C, at 260 nM: 1230 MFI
  Mean Fluorescence Intensity (MFI), uptake 37C-4C, at 882 nM: 2430 MFI
  Mean Fluorescence Intensity (MFI), uptake 37C-4C, at 3000 nM: 3390 MFI

B5: Compound No. 1270697, … peptide conjugated to 20-mer MOE oligonucleotide with 3'-Cy3 (peptide)
peptide: K(Azidoacetyl)LYENKPKKPYIL
modifications: not fully specified; printed as 2-azido-acetyl-KLYENKPKKPYIL; also: azide joined via triazolo-BCN carbamate/6-aminohexanol linker to 5' end of 20-mer MOE oligonucleotide CCAGGCTGGTTATGACTCAG (uniform MOE, phosphodiester, 3'-Cy3)
[2]
  Mean Fluorescence Intensity (MFI), uptake 37C-4C, at 12 nM: 39 MFI
  Mean Fluorescence Intensity (MFI), uptake 37C-4C, at 37 nM: 51 MFI
  Mean Fluorescence Intensity (MFI), uptake 37C-4C, at 111 nM: 86 MFI
  Mean Fluorescence Intensity (MFI), uptake 37C-4C, at 333 nM: 185 MFI
  Mean Fluorescence Intensity (MFI), uptake 37C-4C, at 1000 nM: 474 MFI

B6: 1162756 duplex (Compound No. 1162756 complexed to complementary MOE oligonucleotide …) (peptide)
peptide: KPPPAGSSPGLYENKPRRPYIL
modifications: not fully specified (residue 1); also: oligonucleotide hybridized to complementary MOE strand CTGAGTCATAACCAGCCTGG (duplex)
[3]
  Mean Fluorescence Intensity (MFI), uptake 37C-4C, at 12 nM: 41 MFI
  Mean Fluorescence Intensity (MFI), uptake 37C-4C, at 37 nM: 52 MFI
  Mean Fluorescence Intensity (MFI), uptake 37C-4C, at 111 nM: 71 MFI
  Mean Fluorescence Intensity (MFI), uptake 37C-4C, at 333 nM: 130 MFI
  Mean Fluorescence Intensity (MFI), uptake 37C-4C, at 1000 nM: 278 MFI

B7: Compound No. 1270696, XLYENKPRKPYIL peptide conjugated to 20-mer MOE oligonucleotide with 3'-Cy3 (peptide)
peptide: KLYENKPRKPYIL
modifications: not fully specified (residue 1)
[2]
  Mean Fluorescence Intensity (MFI), uptake 37C-4C, at 12 nM: 43 MFI
  Mean Fluorescence Intensity (MFI), uptake 37C-4C, at 37 nM: 61 MFI
  Mean Fluorescence Intensity (MFI), uptake 37C-4C, at 111 nM: 138 MFI
  Mean Fluorescence Intensity (MFI), uptake 37C-4C, at 333 nM: 312 MFI
  Mean Fluorescence Intensity (MFI), uptake 37C-4C, at 1000 nM: 1100 MFI

B8: Compound No. 1252444, XAGSIKPPPAGSSPGLYENKPRRPYIL peptide conjugated to 20-mer MOE oligonucleotide with 3'-Cy3 (peptide)
peptide: KAGSIKPPPAGSSPGLYENKPRRPYIL
modifications: not fully specified (residue 1); also: X side chain clicked via BCN (triazole) and 6-aminohexanol linker to 5' end of oligonucleotide CCAGGCTGGTTATGACTCAG (MOE, 3'-Cy3)
[4]
  Mean Fluorescence Intensity (MFI), uptake 37C-4C, at 7 nM: 90 MFI
  Mean Fluorescence Intensity (MFI), uptake 37C-4C, at 22 nM: 208 MFI
  Mean Fluorescence Intensity (MFI), uptake 37C-4C, at 76 nM: 609 MFI
  Mean Fluorescence Intensity (MFI), uptake 37C-4C, at 260 nM: 1530 MFI
  Mean Fluorescence Intensity (MFI), uptake 37C-4C, at 882 nM: 2510 MFI
  Mean Fluorescence Intensity (MFI), uptake 37C-4C, at 3000 nM: 3390 MFI

B9: Compound No. 1252445, XAGMSGASAGLYENKPRRPYIL peptide conjugated to 20-mer MOE oligonucleotide with 3'-Cy3 (peptide)
peptide: KAGMSGASAGLYENKPRRPYIL
modifications: not fully specified (residue 1); also: X side chain clicked via BCN (triazole) and 6-aminohexanol linker to 5' end of oligonucleotide CCAGGCTGGTTATGACTCAG (MOE, 3'-Cy3)
[4]
  Mean Fluorescence Intensity (MFI), uptake 37C-4C, at 7 nM: 55 MFI
  Mean Fluorescence Intensity (MFI), uptake 37C-4C, at 22 nM: 85 MFI
  Mean Fluorescence Intensity (MFI), uptake 37C-4C, at 76 nM: 306 MFI
  Mean Fluorescence Intensity (MFI), uptake 37C-4C, at 260 nM: 868 MFI
  Mean Fluorescence Intensity (MFI), uptake 37C-4C, at 882 nM: 1950 MFI
  Mean Fluorescence Intensity (MFI), uptake 37C-4C, at 3000 nM: 2880 MFI

B10: Compound 17-AE-9199, Cy3-labeled [SO5P]LYEN[azido-acetyl-K]PRRPYIL peptide (peptide)
peptide: LYENXPRRPYIL
modifications: not fully specified; position 1 is SO5P (5-oxoproline); internal lysine (LYEN-K) carries the azido-acetyl group joined to Cy3-BCN reagent (Cy3 label)
[1]
  Mean Fluorescence Intensity (MFI), uptake 37C-4C, at 12 nM: 174 MFI
  Mean Fluorescence Intensity (MFI), uptake 37C-4C, at 37 nM: 378 MFI
  Mean Fluorescence Intensity (MFI), uptake 37C-4C, at 111 nM: 825 MFI
  Mean Fluorescence Intensity (MFI), uptake 37C-4C, at 333 nM: 1090 MFI
  Mean Fluorescence Intensity (MFI), uptake 37C-4C, at 1000 nM: 1220 MFI

B11: Compound No. 1215812, CPPPAGSSPGLYENKPRRPYIL peptide conjugated by a maleimide linker to 20-mer MOE oligonucleotide with 3'-Cy3 (peptide)
peptide: CPPPAGSSPGLYENKPRRPYIL
modifications: not fully specified
[5]
  Mean Fluorescence Intensity (MFI), uptake 37C-4C, at 7 nM: 47 MFI
  Mean Fluorescence Intensity (MFI), uptake 37C-4C, at 22 nM: 69 MFI
  Mean Fluorescence Intensity (MFI), uptake 37C-4C, at 76 nM: 205 MFI
  Mean Fluorescence Intensity (MFI), uptake 37C-4C, at 260 nM: 675 MFI
  Mean Fluorescence Intensity (MFI), uptake 37C-4C, at 882 nM: 1810 MFI
  Mean Fluorescence Intensity (MFI), uptake 37C-4C, at 3000 nM: 3140 MFI
